Data taken from patent publication US20080181887A1 (published 2008).

B1: human IgG1 MEDI-493 (SYNAGIS) G385R/Q386T/P387R/N389P (antibody)
heavy (part 1 of 2): QVTLRESGPALVKPTQTLTLTCTFSGFSLSTSGMSVGWIRQPPGKALEWLADIWWDDKKDYNPSLKSRLTISKDTSKNQVVLKVTNMDPADTATYYCARSMITNWYFDVWGAGTTVTVSS
heavy (part 2 of 2): EPKSCDKTHTCPPCPAPELLGGPSVFLFPPKPKDTLMISRTPEVTCVVVDVSHEDPEVKFNWYVDGVEVHNAKTKPREEQYNSTYRVVSVLTVLHQDWLNGKEYKCKVSNKALPAPIEKTISKAKGQPREPQVYTLPPSREEMTKNQVSLTCLVKGFYPSDIAVEWESNRTREPNYKTTPPVLDSDGSFFLYSKLTVDKSRWQQGNVFSCSVMHEALHNHYTQKSLSLSPGK
light: DIQMTQSPSTLSASVGDRVTITCKCQLSVGYMHWYQQKPGKAPKLLIYDTSKLASGVPSRFSGSGSGTEFTLTISSLQPDDFATYYCFQGSGYPFTFGGGTKLEIK
notes: HEK 293, protein A purified; not shown: human IgG1 heavy chain CH1 domain (between VH and hinge-Fc); human kappa light chain constant domain
B2: human IgG1 MEDI-493 (SYNAGIS) N434F/Y436H (antibody)
heavy (part 1 of 2): QVTLRESGPALVKPTQTLTLTCTFSGFSLSTSGMSVGWIRQPPGKALEWLADIWWDDKKDYNPSLKSRLTISKDTSKNQVVLKVTNMDPADTATYYCARSMITNWYFDVWGAGTTVTVSS
heavy (part 2 of 2): not shown
light: DIQMTQSPSTLSASVGDRVTITCKCQLSVGYMHWYQQKPGKAPKLLIYDTSKLASGVPSRFSGSGSGTEFTLTISSLQPDDFATYYCFQGSGYPFTFGGGTKLEIK
notes: as for B1
B3: human IgG1 MEDI-493 (SYNAGIS) M252Y/T256Q (antibody)
heavy (part 1 of 2): QVTLRESGPALVKPTQTLTLTCTFSGFSLSTSGMSVGWIRQPPGKALEWLADIWWDDKKDYNPSLKSRLTISKDTSKNQVVLKVTNMDPADTATYYCARSMITNWYFDVWGAGTTVTVSS
heavy (part 2 of 2): not shown
light: DIQMTQSPSTLSASVGDRVTITCKCQLSVGYMHWYQQKPGKAPKLLIYDTSKLASGVPSRFSGSGSGTEFTLTISSLQPDDFATYYCFQGSGYPFTFGGGTKLEIK
notes: as for B1
B4: human IgG1 MEDI-493 (SYNAGIS) I253A (antibody)
heavy (part 1 of 2): QVTLRESGPALVKPTQTLTLTCTFSGFSLSTSGMSVGWIRQPPGKALEWLADIWWDDKKDYNPSLKSRLTISKDTSKNQVVLKVTNMDPADTATYYCARSMITNWYFDVWGAGTTVTVSS
heavy (part 2 of 2): not shown
light: DIQMTQSPSTLSASVGDRVTITCKCQLSVGYMHWYQQKPGKAPKLLIYDTSKLASGVPSRFSGSGSGTEFTLTISSLQPDDFATYYCFQGSGYPFTFGGGTKLEIK
notes: HEK 293, protein A purified; also called 1253A; not shown: human IgG1 heavy chain CH1 domain (between VH and hinge-Fc); human kappa light chain constant domain
B5: human IgG1 MEDI-493 (SYNAGIS) M252Y/S254T/T256E (antibody)
heavy (part 1 of 2): QVTLRESGPALVKPTQTLTLTCTFSGFSLSTSGMSVGWIRQPPGKALEWLADIWWDDKKDYNPSLKSRLTISKDTSKNQVVLKVTNMDPADTATYYCARSMITNWYFDVWGAGTTVTVSS
heavy (part 2 of 2): EPKSCDKTHTCPPCPAPELLGGPSVFLFPPKPKDTLYITREPEVTCVVVDVSHEDPEVKFNWYVDGVEVHNAKTKPREEQYNSTYRVVSVLTVLHQDWLNGKEYKCKVSNKALPAPIEKTISKAKGQPREPQVYTLPPSREEMTKNQVSLTCLVKGFYPSDIAVEWESNGQPENNYKTTPPVLDSDGSFFLYSKLTVDKSRWQQGNVFSCSVMHEALHNHYTQKSLSLSPGK
light: DIQMTQSPSTLSASVGDRVTITCKCQLSVGYMHWYQQKPGKAPKLLIYDTSKLASGVPSRFSGSGSGTEFTLTISSLQPDDFATYYCFQGSGYPFTFGGGTKLEIK
notes: HEK 293, protein A purified; also called IgG1/M252Y/S254T/T256E; not shown: human IgG1 heavy chain CH1 domain (between VH and hinge-Fc); human kappa light chain constant domain
B6: human IgG1 MEDI-493 (SYNAGIS) M252W (antibody)
heavy (part 1 of 2): QVTLRESGPALVKPTQTLTLTCTFSGFSLSTSGMSVGWIRQPPGKALEWLADIWWDDKKDYNPSLKSRLTISKDTSKNQVVLKVTNMDPADTATYYCARSMITNWYFDVWGAGTTVTVSS
heavy (part 2 of 2): not shown
light: DIQMTQSPSTLSASVGDRVTITCKCQLSVGYMHWYQQKPGKAPKLLIYDTSKLASGVPSRFSGSGSGTEFTLTISSLQPDDFATYYCFQGSGYPFTFGGGTKLEIK
notes: as for B1
B7: human IgG1 MEDI-493 (SYNAGIS) H433K/N434F/Y436H (antibody)
heavy (part 1 of 2): QVTLRESGPALVKPTQTLTLTCTFSGFSLSTSGMSVGWIRQPPGKALEWLADIWWDDKKDYNPSLKSRLTISKDTSKNQVVLKVTNMDPADTATYYCARSMITNWYFDVWGAGTTVTVSS
heavy (part 2 of 2): EPKSCDKTHTCPPCPAPELLGGPSVFLFPPKPKDTLMISRTPEVTCVVVDVSHEDPEVKFNWYVDGVEVHNAKTKPREEQYNSTYRVVSVLTVLHQDWLNGKEYKCKVSNKALPAPIEKTISKAKGQPREPQVYTLPPSREEMTKNQVSLTCLVKGFYPSDIAVEWESNGQPENNYKTTPPVLDSDGSFFLYSKLTVDKSRWQQGNVFSCSVMHEALKFHHTQKSLSLSPGK
light: DIQMTQSPSTLSASVGDRVTITCKCQLSVGYMHWYQQKPGKAPKLLIYDTSKLASGVPSRFSGSGSGTEFTLTISSLQPDDFATYYCFQGSGYPFTFGGGTKLEIK
notes: as for B1

How the values were obtained:
human FcRn [1] = molecular target: T1, human FcRn (human); assay: BIAcore SPR, equilibrium binding with Scatchard analysis, soluble human FcRn over immobilized IgG1, pH 6.0
T1 construct: mature; Soluble heterodimer from baculovirus-infected High-Five cells, purified on IgG Sepharose; also called recombinant human FcRn; the human receptor
Procedure: (§1) The interaction of soluble murine and human FcRn with immobilized human IgG1 variants was monitored by surface plasmon resonance detection using a BIAcore 3000 instrument (Pharmacia Biosensor, Uppsala, Sweden). […] Protein concentrations were calculated by the bicinchoninic acid (BCA) method for both human and murine FcRn or using the 1% extinction coefficient at 280 m of 1.5 for IgG1 wild type and variants. The latter were coupled to the dextran matrix of a CM5 sensor chip (Pharmacia Biosensor) using an Amine Coupling Kit as described (Johnson et al., supra). The protein concentrations ranged from 3-5 μg/ml in 10 mM sodium acetate, pH 5.0. The activation period was set for 7 minutes at a flow rate of 10 μl/min and the immobilization period was set to between 10 and 20 minutes at a flow rate of 10 μl/min. Excess reactive esters were quenched by injection of 70 μl of 1.0 methanolamine hydrochloride, pH 8.5. […] Human and murine FcRn were buffer exchanged against 50 mM PBS buffer pH 6.0 containing 0.05% Tween 20. Dilutions were made in the same buffer. All binding experiments were performed at 25 C. with concentrations ranging from 120 to 1 μg/ml at a flow rate of 5 to 10 μl/min; data were collected for 25 to 50 minutes and three 1-minute pulses of PBS buffer pH 7.2 were used to regenerate the surfaces. FcRn was also flowed over an uncoated cell and the sensorgrams from these blank runs subtracted from those obtained with IgG1-coupled chips. Runs were analyzed using the software BIAevaluation 3.1 (Pharmacia). Association constants (KAS) were determined from Scatchard analysis by measuring the concentration of free reactants and complex at equilibrium after correction for nonspecific binding.

murine FcRn [2] = molecular target: T2, murine FcRn (murine, UniProt P01887 21-119, limits assumed); assay: BIAcore SPR, equilibrium binding with Scatchard analysis, soluble murine FcRn over immobilized IgG1, pH 6.0
T2 construct: the whole entry is named; also called mouse FcRn; muFcRn
T2 sequence: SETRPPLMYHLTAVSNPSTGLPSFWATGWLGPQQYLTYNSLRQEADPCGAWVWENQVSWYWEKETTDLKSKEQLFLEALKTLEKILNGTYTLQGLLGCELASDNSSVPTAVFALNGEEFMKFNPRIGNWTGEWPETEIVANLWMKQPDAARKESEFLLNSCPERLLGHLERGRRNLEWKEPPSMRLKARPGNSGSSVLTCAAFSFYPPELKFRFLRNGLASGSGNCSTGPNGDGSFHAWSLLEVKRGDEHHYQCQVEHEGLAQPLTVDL
T2 sequence (b2m): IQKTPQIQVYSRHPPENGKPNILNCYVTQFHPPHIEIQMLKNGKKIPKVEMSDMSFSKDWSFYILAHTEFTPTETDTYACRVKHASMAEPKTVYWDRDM
Procedure: as §1

murine FcRn [3] = molecular target: T2, murine FcRn; assay: BIAcore SPR, soluble murine FcRn over immobilized IgG1, pH 6.0
Procedure: (§2) The interaction of soluble murine and human FcRn with immobilized human IgG1 variants was monitored by surface plasmon resonance detection using a BIAcore 3000 instrument (Pharmacia Biosensor, Uppsala, Sweden). […] Protein concentrations were calculated by the bicinchoninic acid (BCA) method for both human and murine FcRn or using the 1% extinction coefficient at 280 m of 1.5 for IgG1 wild type and variants. The latter were coupled to the dextran matrix of a CM5 sensor chip (Pharmacia Biosensor) using an Amine Coupling Kit as described (Johnson et al., supra). The protein concentrations ranged from 3-5 μg/ml in 10 mM sodium acetate, pH 5.0. The activation period was set for 7 minutes at a flow rate of 10 μl/min and the immobilization period was set to between 10 and 20 minutes at a flow rate of 10 μl/min. Excess reactive esters were quenched by injection of 70 μl of 1.0 methanolamine hydrochloride, pH 8.5. […] Human and murine FcRn were buffer exchanged against 50 mM PBS buffer pH 6.0 containing 0.05% Tween 20. Dilutions were made in the same buffer. […] Runs were analyzed using the software BIAevaluation 3.1 (Pharmacia). Association constants (KAS) were determined from Scatchard analysis by measuring the concentration of free reactants and complex at equilibrium after correction for nonspecific binding.

human FcRn [4] = molecular target: T1, human FcRn; assay: BIAcore SPR, soluble human FcRn over immobilized IgG1, pH 6.0
Procedure: as §2

murine FcRn [5] = molecular target: T2, murine FcRn; assay: BIAcore SPR, Scatchard analysis of FIG. 7A, murine FcRn 1 nM to 556 nM over 4000 RU of immobilized IgG1
Procedure: Runs were analyzed using the software BIAevaluation 3.1 (Pharmacia). Association constants (KAS) were determined from Scatchard analysis by measuring the concentration of free reactants and complex at equilibrium after correction for nonspecific binding. […] The concentration of free analyte (human or murine FcRn) is equal to the bulk analyte concentration since analyte is constantly replenished during sample injection. The concentration of free ligand on the surface of the sensor chip can be derived from the concentration of the complex and from the total binding capacity of the surface as KA=Req/C(Rmax-Req) where C is the free analyte concentration, Req is the steady-state response, and Rmax is the total surface binding capacity. Rearranging, the equation reads: Req/C=KA Rmax-KA Req.
In all cases, equilibrium (or near-equilibrium) binding levels were reached within 50 minutes. To estimate the increase in RU resulting from the non specific effect of protein on the bulk refractive index, binding of FcRn to an uncoated cell was measured and the sensorgrams from these blank runs subtracted from those obtained with IgG1-coupled chips.

T1 sequence (chain, as listed by the source limits assumed, chain 1 of 2): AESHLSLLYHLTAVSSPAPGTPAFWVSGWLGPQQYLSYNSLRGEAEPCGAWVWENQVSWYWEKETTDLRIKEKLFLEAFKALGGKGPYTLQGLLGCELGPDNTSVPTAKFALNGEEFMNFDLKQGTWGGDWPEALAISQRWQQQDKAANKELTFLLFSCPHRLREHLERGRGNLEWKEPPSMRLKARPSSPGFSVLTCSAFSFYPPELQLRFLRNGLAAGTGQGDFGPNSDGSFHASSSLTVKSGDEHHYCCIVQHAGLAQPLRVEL
T1 sequence (P61769 21-119 limits assumed, chain 2 of 2): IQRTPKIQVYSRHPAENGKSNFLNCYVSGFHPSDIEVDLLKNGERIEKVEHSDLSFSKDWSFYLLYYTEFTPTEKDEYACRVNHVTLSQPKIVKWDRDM

Binder | ΔΔG (ΔG wild type - ΔG mutant) (human FcRn [1]) | Kd (murine FcRn [2]) | ΔΔG (ΔG wild type - ΔG mutant) (murine FcRn [2]) | binding result (murine FcRn [3]) | binding result (human FcRn [4]) | Kd (murine FcRn [5])
B1 | 0.3 kcal/mol | – | – | – | – | –
B2 | 1 kcal/mol | 9 nM | 2 kcal/mol | – | – | –
B3 | 0.9 kcal/mol | – | – | – | – | –
B4 | – | – | – | no binding (tested: FcRn 1 to 120 µg/ml) | no binding (tested: FcRn 1 to 120 µg/ml) | –
B5 | 1.4 kcal/mol | 27 nM | 1.4 kcal/mol | – | – | 24 nM
B6 | 1.1 kcal/mol | 30 nM | 1.3 kcal/mol | – | – | –
B7 | 1.1 kcal/mol | 14 nM | 1.8 kcal/mol | – | – | –
